One molecule from patent publication US20090089894A1 (IOWA STATE UNIVERSITY RESEARCH FOUNDATION, published 2009) can be followed below.

The target in this experiment is T1, pB42AD-T, SV40 large T-antigen (87-708 aa) in the pB42AD vector (SV40, UniProt P03070 87-708).
T1 construct: range 87-708; positive control prey
The experiment is described as follows: yeast two-hybrid positive control (FIG. 2).

T1 sequence (P03070 87-708 limits assumed): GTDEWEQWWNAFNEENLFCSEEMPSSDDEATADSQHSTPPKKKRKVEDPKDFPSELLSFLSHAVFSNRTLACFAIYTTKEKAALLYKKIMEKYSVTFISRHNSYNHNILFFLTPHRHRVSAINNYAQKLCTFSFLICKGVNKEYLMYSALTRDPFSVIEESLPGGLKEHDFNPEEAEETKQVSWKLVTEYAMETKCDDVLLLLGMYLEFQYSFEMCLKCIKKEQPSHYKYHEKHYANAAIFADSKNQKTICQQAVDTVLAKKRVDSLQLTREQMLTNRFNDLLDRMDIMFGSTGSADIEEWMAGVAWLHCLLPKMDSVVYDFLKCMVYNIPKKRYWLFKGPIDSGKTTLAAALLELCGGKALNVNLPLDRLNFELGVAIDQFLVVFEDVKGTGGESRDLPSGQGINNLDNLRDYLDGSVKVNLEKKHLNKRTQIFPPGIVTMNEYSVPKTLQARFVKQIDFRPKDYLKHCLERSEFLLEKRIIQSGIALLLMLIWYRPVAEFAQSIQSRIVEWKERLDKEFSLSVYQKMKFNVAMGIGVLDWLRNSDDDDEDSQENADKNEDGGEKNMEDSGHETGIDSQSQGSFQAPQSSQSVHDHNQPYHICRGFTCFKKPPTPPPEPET

B1: pLexA-53, murine p53 (72-390 aa) in the pLexA vector (other)
chain: PVTETPGPVAPAPATPWPLSSFVPSQKTYQGNYGFHLGFLQSGTAKSVMCTYSPPLNKLFCQLAKTCPVQLWVSATPPAGSRVRAMAIYKKSQHMTEVVRRCPHHERCSDGDGLAPPQHLIRVEGNLYPEYLEDRQTFRHSVVVPYEPPEAGSEYTTIHYKYMCNSSCMGGMNRRPILTIITLEDSSGNLLGRDSFEVRVCACPGRDRRTEEENFRKKEVLCPELPPGSAKRALPTCTSASPPQKKKPLDGEYFTLKIRGRKRFEMFRELNEALELKDAHATEESGDSRAHSSYLKTKKGQSTSRHKKTMVKKVGPDSD
notes: range 72-390; positive control bait
For the molecule B1, the binding result is listed as “binds”.
